Results reported in patent US11702469B2, “Recombinant EGFL7, EGFL7 antibodies, and uses thereof” (Ohio State Innovation Foundation, priority 2017, dated 2023).

Legend:
human AML blasts = assay: CFU assay, blasts of AML patients; assay type: cell-based
Experimental: FIG. 4A-4E. EGFL7 stimulates the proliferation of human and mouse acute myeloid leukemia (AML cells). Bone marrow cells from wild-type (WT) mice (FIG. 4A), and Mll^PTD/WTFlt3^ITD/WT mice (FIG. 4B), were treated without (Unstim) or with 0.1, 0.25, or 0.5 μM recombinant mouse Egfl7 (rEgfl7) in IMDM medium+2% bovine serum albumin (BSA) for 24, 48, 72 and 96 hours. At the indicated time points, the number of viable cells was determined by trypan blue dye exclusion assay. Each condition was repeated in triplicate. NS indicates not significant, * indicates P<0.05, ** indicates P<0.01. (FIG. 4C). […] The colonies with more than 50 cells were enumerated using a light microscope. Each condition for each patient (n=4) was plated in triplicate, ** indicates P<0.01, *** indicates P<0.001. (FIG. 4D) Blasts from AML patients (n=4) were cultured in SFEM+2% BSA in the absence or presence of 0.25 μM rEGFL7 for 20 min. Total proteins were extracted for immunoblotting of phosphorylated AKT-S473 (pAKT-S473), total AKT and GAPDH. (FIG. 4E) AML blasts from Mll^PTD/WTFlt3^ITD/WT mice (n=3) were cultured in IMDM medium+2% BSA in the absence or presence of […] recombinant rEgfl7 for 20 min. […]
FIG. 5. […] The number of colonies with more than 50 cells was counted under a light microscope. […]
Colonies with more than 50 cells were counted using a light microscope. […]

CD34+CB cells = assay: CFU assay, CD34+ cord blood cells; assay type: cell-based; settings: treated in vitro, vs IgG1 control
Experimental: FIG. 12. Recombinant EGFL7 stimulation leads to expansion of primary CFUs and secondary CFUs in human hematopoietic stem and progenitor cells (HSPCs). […] The number of colonies with more than 50 cells was counted under a light microscope. Right: Cells from the first round of CFU assays were harvested, rinsed with SFEM, and pooled. 5000 cells were then mixed with methylcellulose medium in the absence or presence of 0.25 μM recombinant human EGFL7 and plated onto 2 cm dishes for 10 days. The number of colonies with more than 50 cells was counted under a light microscope. […]
[…] After 10 days of culture, colonies were scored.
To assess the toxicity of Parsatuzumab on normal hematopoiesis, wild type (C57Bl/6J) mice were treated with Parsatuzumab (n=4) and IgG1 control (n=4) with the highest dose previously tested at 50 mpk twice a week for two weeks. Parsatuzumab targets both human and mouse EGFL7 protein. After two weeks of treatment, blood, spleen and BM were harvested and full phenotypic characterization was performed to assess toxicity. […] Full immunophenotypic examination of BM populations was also performed (data not shown due to space constraints). […] To functionally test the effect of Parsatuzumab on normal HSPCs, competitive repopulation BM transplantation (BMT) assays and CFU assays were performed. […]

[1] = system: CD34+ primary AML patient cells; assay: Cell-trace violet (CTV) membrane-labeling retention, quiescence; assay type: cell-based, human; settings: vs unstimulated / IgG1 controls
Text: FIG. 17A-17C. EGFL7 in LSCs. FIG. 17A. qRT-PCR of EGFL7 in LSC-enriched and non-LSC enriched subpopulations of primary AML patient samples normalized to B-ACTIN. Number of quiescent (CTV^MAX) AML cells treated with FIG. 17B. rEGFL7 or control (vs Unstim). FIG. 17C. anti-EGFL7 (Parsatuzumab) antibody or IgG1 control (vs Unstim). *P<0.05.
A morphologically homogenous and functionally static blast population present in the BM and blood of individual AML patients has now evolved into the current perspective of multiple dynamic and heterogeneous cell subpopulations which includes the bulk blast population and the relatively rare leukemia initiating cells (LICs) also referred to as LSCs. Thus, targeting both LSCs and bulk blasts is necessary for complete eradication of the disease. To determine whether EGFL7 has a role in LCS, the LSC-enriched population was first determined within each AML patient sample using long-term colony initiating cell (LTC-IC) assays. […] Next, to determine whether EGFL7 has a role in LSC function, CD34+ cells were isolated and stimulated them with rEGFL7 protein and performed LTC-IC assays. […] To determine whether EGFL7 regulates LSC functions such as cellular quiescence, membrane-labeling retention experiments were performed with cell-trace violet dye (CTV). […]

[2] = system: non-small cell lung cancer; settings: mouse, in vivo; cited from earlier work

B1: Parsatuzumab: Anti-human EGFL7 therapeutic antibody (Parsatuzumab) obtained from Creative Biolabs; blocking monoclonal antibody (antibody, chains of the INN, looked up, V domains shown)
VH: EVQLVESGGGLVQPGGSLRLSCAASGYTFIDYYMNWVRQAPGKGLEWVGDINLDNSGTHYNQKFKGRFTISRDKSKNTAYLQMNSLRAEDTAVYYCAREGVYHDYDDYAMDYWGQGTLVTVSS
VL: DIQMTQSPSSLSASVGDRVTITCRTSQSLVHINAITYLHWYQQKPGKAPKLLIYRVSNRFSGVPSRFSGSGSGTDFTLTISSLQPEDFATYYCGQSTHVPLTFGQGTKVEIK
cell growth (numbers of formed colonies in CFU assays) (human AML blasts; 2, 10, 50, or 250 μg/ml for 2 h, then 10 days, vs normal IgG): significant decreases in cell growth
blast growth (number of CFUs) (human AML blasts; increasing concentrations for 4 hours, then 10 days in methylcellulose, n=4, vs IGg1 control): dose dependent decrease in blast growth
numbers and types of colonies, CB CD34+ cells (CD34+CB cells): no significant changes in the numbers or types of colonies
number of quiescent cells (CTV^MAX) [1]: decrease in the number of quiescent AML cells
overall survival [2]: increased overall survival
tumor size [2]: decreased tumor size
